± gives the uncertainty stated by the source.
Test: protein stability index of a GFP-peptide fusion (yeast GPS) (PSI 1-4); higher = more stable; sorted into four equal gates, so the index is relative within each strain
How it was run: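 The protein stability index of a peptide was calculated by multiplying its read frequency in each gate by that gate's number and adding the products. The peptides were tiled 17-residue stretches of yeast proteins, fused downstream of GFP on a Cherry-expressing plasmid and carried in yeast as a pooled library. Mid-log cultures in leucine-free medium were sorted into four equal gates by GFP/Cherry ratio, and each gate's plasmids were PCR-amplified and Illumina-sequenced.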

Sequence | protein stability index (doa10∆) | protein stability index (pdr5∆) | protein stability index (san1∆) | protein stability index (ubr1∆)
VPVRDGVTIEFSTNVKD [RPL9A] | 1.35 ± 0.27 | 1.58 ± 0.26 |  | 
VQASVTSSTHERKSKTY [RET1] | 2.6 ± 0.066 | 2.78 ± 0.079 | 2.55 ± 0.056 | 2.97 ± 0.061
VQCHGSFATATCVTCHW [SIR2] | 2.28 ± 0.047 | 2.55 ± 0.046 | 2.26 ± 0.045 | 2.51 ± 0.031
VQDKDTLSNAERAKNVN [GAL11] |  | 2.71 ± 0.23 | 2.71 ± 0.18 | 2.91 ± 0.12
VQLPILKIIYTGLCSFD [YJL039C/NUP192] | 1.41 ± 0.055 | 1.76 ± 0.043 | 1.26 ± 0.12 | 1.76 ± 0.058
VQRTMLELLNQLDGFSS [RPT5] | 2.99 ± 0.078 | 2.88 ± 0.072 | 2.83 ± 0.063 | 2.99 ± 0.05
VQSQVDSSSVSEDSAVF [FAS1] | 3.11 ± 0.072 | 3.33 ± 0.08 | 3.12 ± 0.047 | 3.29 ± 0.049
VQYLSGAHGNSDPVCLF [POP3] | 2.96 ± 0.12 | 2.83 ± 0.18 | 3.04 ± 0.11 | 2.75 ± 0.063
VRDELRKVEKEKNEKER [UBP6] |  |  | 3.5 ± 0.13 | 3.78 ± 0.2
VRHGRAGATTSRFIPLK [RPS15] | 2.62 ± 0.076 | 2.56 ± 0.062 | 2.89 ± 0.042 | 3.06 ± 0.064
VRIFTKIESEDDYILSG [SRB4] |  |  |  | 2.79 ± 0.092
VRIHSIQVLTEASSLGY [IRR1] | 1.49 ± 0.22 | 1.64 ± 0.12 |  | 
VRLPTKVLKISTRKTPN [RPS20] | 1.83 ± 0.087 | 2.22 ± 0.089 | 1.7 ± 0.15 | 2.42 ± 0.084
VRNKSYPVYTRLRTLCR [DIS3] | 2.65 ± 0.08 | 2.83 ± 0.072 | 3.06 ± 0.11 | 2.46 ± 0.051
VRNVKGPVRENDILVLM [RPS28A] | 3.24 ± 0.11 | 3.04 ± 0.1 | 3.5 ± 0.13 | 2.98 ± 0.074
VRPFGVSTLIAGFDPRD [PRE6] | 1.5 ± 0.15 | 1.7 ± 0.13 | 1.75 ± 0.17 | 1.41 ± 0.084
VRSTIKFQLKKVLCLAV [RPL1A] | 1.45 ± 0.051 | 1.35 ± 0.053 | 1.29 ± 0.089 | 1.18 ± 0.037
VRTSATFRLPKTLKLAR [RPL25] | 2.84 ± 0.1 | 2.35 ± 0.12 | 1.74 ± 0.26 | 2.72 ± 0.14
VRYGSSLRRQVKKLEIQ [RPL43A] |  |  | 2.55 ± 0.2 | 
VSEGTRAVTKYSSSTQA [HTB1] | 2.99 ± 0.066 | 3.15 ± 0.1 | 3.16 ± 0.054 | 3.02 ± 0.071
VSHHATTFTHCEIHPSM [RPB2] | 3.12 ± 0.076 | 3.22 ± 0.069 | 2.46 ± 0.12 | 2.96 ± 0.062
VSIDIEEPQLDLLDDVL [MTW1] | 2.62 ± 0.094 | 3.09 ± 0.067 | 3.24 ± 0.045 | 3.19 ± 0.048
VSKSEPKFFLGEENRVR [QCR2] | 3.42 ± 0.097 | 3.18 ± 0.077 | 3.13 ± 0.053 | 3.26 ± 0.048
VSMVKRAIDSLIQKGYL [CDC53] | 1.74 ± 0.053 | 1.82 ± 0.058 | 2.03 ± 0.11 | 1.74 ± 0.052
VSNILSAFKFIHTQLSE [YJL039C/NUP192] | 2.19 ± 0.061 | 1.92 ± 0.048 | 1.47 ± 0.094 | 1.58 ± 0.037
VSNSGAQDEEIHKQIVI [UBP6] | 3.17 ± 0.16 | 3.5 ± 0.14 | 3.08 ± 0.14 | 3.16 ± 0.11

Sequence | protein stability index (doa10∆) | protein stability index (pdr5∆) | protein stability index (san1∆) | protein stability index (ubr1∆)
VSPNAAPRQEISEEETT [YAR002W/NUP60] | 3.19 ± 0.1 | 2.88 ± 0.077 | 2.9 ± 0.086 | 2.6 ± 0.12
VSQMVAVVGQQIISGNR [RPO31] | 3.2 ± 0.14 | 3.14 ± 0.15 | 3 ± 0.094 | 2.68 ± 0.13
VSTEGNVPQTLAPVPYE [RPL21A] | 3.19 ± 0.072 | 3.02 ± 0.085 | 3.11 ± 0.05 | 3.05 ± 0.068
VSTLIAGFDPRDDEPKL [PRE6] |  |  | 3.12 ± 0.077 | 
VSVEGVNVEKFNVEYFA [RPL6A] | 2.91 ± 0.069 | 3.21 ± 0.067 | 3.14 ± 0.042 | 3.16 ± 0.054
VSYMMPSLYRLLNILIT [SRB8] | 1.22 ± 0.12 | 1.21 ± 0.07 | 1.1 ± 0.12 | 1.3 ± 0.057
VTGFAEVGPWGSARTRW [FAS2] | 2.24 ± 0.079 | 3.03 ± 0.086 | 2.73 ± 0.093 | 2.06 ± 0.071
VTHDCYRVTLESILQMN [RPC34] | 3.29 ± 0.28 | 2.39 ± 0.27 | 2.66 ± 0.16 | 
VTLNKYCSGNIYDFHKM [YJL039C/NUP192] | 2.7 ± 0.044 | 2.81 ± 0.051 | 2.91 ± 0.04 | 2.78 ± 0.041
VTNIRRIIQDNISPRLV [RRP46] | 2.3 ± 0.09 | 2.63 ± 0.1 |  | 2.23 ± 0.074
VTNNVEEGEFIIDLYSL [TAF14] | 3.38 ± 0.085 | 3.48 ± 0.083 | 3.58 ± 0.057 | 3.54 ± 0.06
VTQQKRSLDENRLEIKY [SMC1] | 2.06 ± 0.064 | 2.15 ± 0.096 | 2.12 ± 0.16 | 2.08 ± 0.062
VTRGISVLKDSDDKTRQ [PRE1] | 3.16 ± 0.078 | 3.28 ± 0.066 | 3.18 ± 0.056 | 3.17 ± 0.059
VTSSFFYRGNYTDFENT [FAS1] | 2.05 ± 0.058 | 2.4 ± 0.049 | 2.43 ± 0.079 | 2.57 ± 0.056
VVEDKPLLSKKERLVRD [SMB1] | 1.14 ± 0.063 | 1.2 ± 0.043 | 1.21 ± 0.13 | 1.49 ± 0.056
VVGLGERVSPTDIEEGM [RPT1] |  | 3.33 ± 0.24 |  | 
VVGRTTRSNPPFKRKML [REC8] | 2.59 ± 0.06 | 2.77 ± 0.059 | 2.71 ± 0.055 | 2.75 ± 0.054
VWYGLSDGEDGHIPWHI [SSN2] | 3.05 ± 0.08 | 3.25 ± 0.091 | 3.07 ± 0.053 | 3.1 ± 0.062
VYNNSKDEYLAQLDGRI [NSL1] | 3.33 ± 0.073 | 3.26 ± 0.049 | 3.17 ± 0.049 | 3.36 ± 0.045
WAADSVSSRVRGYTCQF [FAS1] | 2.56 ± 0.29 | 2.62 ± 0.15 | 2.71 ± 0.11 | 2.69 ± 0.13
WADNYERKEQEEKEKEQ [BRN1] | 3.47 ± 0.21 |  | 3.49 ± 0.11 | 3.46 ± 0.14
WAGKRLWDQDIAIAGTG [COR1] | 3.25 ± 0.1 | 3.11 ± 0.12 | 2.56 ± 0.1 | 2.66 ± 0.072
WGAETDELSMIMEHFSQ [RPS12] | 2.93 ± 0.11 | 3.12 ± 0.17 | 3.44 ± 0.071 | 3.29 ± 0.12
WGTLQSVSPQMNAILTD [SMD1] | 2.83 ± 0.11 | 2.66 ± 0.1 | 2.75 ± 0.057 | 2.91 ± 0.074
WLETYSENRDKFLQEFI [IRR1] | 2.97 ± 0.096 | 1.93 ± 0.11 | 2.58 ± 0.096 | 1.92 ± 0.1
WLNFLRGTIPLLERYIG [PRP8] | 1.41 ± 0.068 | 1.23 ± 0.046 | 1.18 ± 0.077 | 1.1 ± 0.065
